For orientation: Kd means the constant that tells how readily two partners part at equilibrium.

Changes are numbered by the printed parent chain.

Test [1] has as its target T1, recombinant human integrin αvβ8 ectodomain (human, UniProt P06756 31-992; P26012 43-681). Description: cell-based or functional assay.
Test [2] has as its target T2, integrin αvβ5 ectodomain (immobilized) (Homo sapiens (Human), UniProt P06756 31-992; P18084 24-719).
T2 construct: R&D Systems; copies: 1 + 1
Description: ELISA on immobilized integrin ectodomains plated at 1 µg/ml, blocked with 1% BSA. On the procedure: (§1) FIG. 20: H4C8 maintains ability to block αvβ8-mediated TGF-β activation similar to HuC6D4F12 while maintaining specificity for αvβ8. A) Shown are inhibition curves for the indicated antibody abilities to block the ability of immobilized human αvβ8 to activate human L-TGF-β presented on the cell surface of TMLC by GARP. The assays were performed exactly as described in (Seed et al, Sci Immunol, 2021 and Campbell, et al, Cell 2019). The estimated ED50 values are shown. The antibodies used were HuC6D4 IgG2a, HuC6D4F12 IgG2a or H3.H12, H4C8 or H4C8m (murine VL Fr4) as human IgG4. B) The specificity of H4C8 was tested against immobilized ectodomains of αvβ1, αvβ3, αvβ5, αvβ6 and αvβ8 (either purchased from R &D systems or produced in ExpiCHO cells. All ectodomains were plated at 1 μg/ml and after washing, wells were blocked with 1% BSA. The indicated antibodies (either human IgG4 isotype or H4C8 IgG4).
In general terms: In an ELISA, binding on a coated surface is turned into a signal by an enzyme label.

The target in test [3] is T3, integrin αvβ6 ectodomain (immobilized) (human, UniProt P06756 31-992; P18564 22-709).
T3 construct: extracellular domain; Bought from R&D Systems or made in ExpiCHO cells; also called immobilized human αvβ6
T3 sequence (P06756 31-992, chain 1 of 2): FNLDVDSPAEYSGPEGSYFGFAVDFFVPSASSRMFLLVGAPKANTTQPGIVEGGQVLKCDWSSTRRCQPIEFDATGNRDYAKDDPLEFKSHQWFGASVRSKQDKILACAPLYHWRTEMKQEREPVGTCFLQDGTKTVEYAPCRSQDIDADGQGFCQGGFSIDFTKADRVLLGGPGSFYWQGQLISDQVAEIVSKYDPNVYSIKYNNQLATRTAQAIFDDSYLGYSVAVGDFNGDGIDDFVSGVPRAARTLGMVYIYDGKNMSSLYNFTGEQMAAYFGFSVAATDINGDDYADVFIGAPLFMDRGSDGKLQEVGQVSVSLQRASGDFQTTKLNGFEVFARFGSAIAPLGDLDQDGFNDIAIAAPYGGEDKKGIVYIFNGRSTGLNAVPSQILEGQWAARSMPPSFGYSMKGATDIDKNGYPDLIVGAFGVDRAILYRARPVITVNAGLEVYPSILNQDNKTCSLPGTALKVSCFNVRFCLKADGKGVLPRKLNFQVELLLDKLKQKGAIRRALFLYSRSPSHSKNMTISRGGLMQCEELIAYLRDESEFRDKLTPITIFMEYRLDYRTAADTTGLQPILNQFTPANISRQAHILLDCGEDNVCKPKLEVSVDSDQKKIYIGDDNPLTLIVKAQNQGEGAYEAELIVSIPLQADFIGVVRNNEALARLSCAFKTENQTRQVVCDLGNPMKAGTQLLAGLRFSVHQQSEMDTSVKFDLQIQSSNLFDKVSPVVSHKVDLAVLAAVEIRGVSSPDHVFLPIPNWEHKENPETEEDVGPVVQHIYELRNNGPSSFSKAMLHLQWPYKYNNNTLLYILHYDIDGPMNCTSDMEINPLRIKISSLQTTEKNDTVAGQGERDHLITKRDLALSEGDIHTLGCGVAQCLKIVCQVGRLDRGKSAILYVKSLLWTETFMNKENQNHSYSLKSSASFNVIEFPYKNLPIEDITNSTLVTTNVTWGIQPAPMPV
T3 sequence (P18564 22-709, chain 2 of 2): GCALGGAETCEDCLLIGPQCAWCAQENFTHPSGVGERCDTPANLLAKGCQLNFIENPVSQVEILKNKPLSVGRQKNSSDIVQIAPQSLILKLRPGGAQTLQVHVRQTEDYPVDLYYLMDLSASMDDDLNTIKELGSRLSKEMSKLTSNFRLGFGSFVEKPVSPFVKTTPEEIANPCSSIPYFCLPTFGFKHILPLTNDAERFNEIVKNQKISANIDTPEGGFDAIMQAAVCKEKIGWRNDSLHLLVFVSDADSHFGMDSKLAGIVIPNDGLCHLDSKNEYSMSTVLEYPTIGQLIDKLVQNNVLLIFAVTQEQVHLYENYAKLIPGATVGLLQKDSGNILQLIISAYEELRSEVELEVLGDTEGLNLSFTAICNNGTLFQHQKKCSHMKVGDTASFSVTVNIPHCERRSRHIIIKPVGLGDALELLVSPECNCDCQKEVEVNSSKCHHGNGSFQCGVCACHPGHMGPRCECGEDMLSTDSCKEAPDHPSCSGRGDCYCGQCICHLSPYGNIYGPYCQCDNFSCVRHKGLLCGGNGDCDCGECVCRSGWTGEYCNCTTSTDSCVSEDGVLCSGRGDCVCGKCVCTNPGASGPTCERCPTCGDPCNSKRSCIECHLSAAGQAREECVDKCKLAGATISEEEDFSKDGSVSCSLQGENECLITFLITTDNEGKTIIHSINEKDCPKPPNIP
Described as above. As to the method: as §1

The target in test [4] is T4, integrin αvβ1 ectodomain (immobilized) (Homo sapiens (Human), UniProt P06756 31-992; P05556 21-728).
T4 construct: R&D Systems; copies: 1 + 1
The test is described as above. As to the method: as §1

The target in test [5] is T5, integrin αvβ3 ectodomain (immobilized) (Homo sapiens (Human), UniProt P06756 31-992; P05106 27-718).
T5 construct: Bought from R&D Systems or made in ExpiCHO cells; copies: 1 + 1
Described as above. On the procedure: as §1

Test [6] concerns the target T6, human integrin αvβ8 on transfected cells (CHO cells stably transfected; HEK 293 cells stably expressing αvβ8) (human, UniProt P06756 31-1048; P26012 43-769).
T6 construct: whole, on cells; also called CHO αvβ8 cells; αvβ8 expressing CHO cells
As to the kind of experiment: flow cytometry on CHO cells expressing human αvβ8 fixed in 2% buffered formalin for 15 min, antibody titrated, hyperbolic least-squares fit (m3 = KD); curves on D00025 [Cont.]. On the procedure: (§2) FIG. 17: Characterization of cell surface binding of humanized affinity optimized anti-αvβ8 antibodies. The cell surface binding affinities of H4C8, H4G9, H4C10, H4G8 compared to HuC6D4F12 expressed as IgG4 (S228P to prevent arm exchange, R409K and L445P to reduce aggregation and to promote stability). […] Cell surface affinity was determined using the least-squares fit model based on the hyperbolic equation y=m1+m2*m0/(m3+m0), where y=MFI at different avb8 concentrations; m0=αvβ8 concentration; m1=MFI with no αvβ8; m2=MFI at saturation; and m3=KD.
(§3) FIG. 18: Binding characteristics of H4C8 of formalin fixed αvβ8 compared to HuC6D4F12 or ADWA11 2.4 (from Pat no. US2020/0079855 A1). CHO αvβ8 expressing cells were fixed in 2% buffered formalin in PBS for 15 min at RT and then stained at the indicated concentrations as described in FIG. 17. The binding affinities to unfixed or formalin fixed cells is shown. Cell surface affinity was determined using the least-squares fit model based on the hyperbolic equation y=m1+m2*m0/(m3+m0), where y=MFI at different αvβ8 concentrations; m0=αvβ8 concentration; m1=MFI with no αvβ8; m2=MFI at saturation; and m3=KD.

Test [7] concerns the target T6, human integrin αvβ8 on transfected …. Description: flow cytometry on unfixed CHO cells expressing human αvβ8, antibody titrated, hyperbolic least-squares fit (m3 = KD); curves on D00025 [Cont.]. As to the method:
as §2, §3
For orientation: In flow cytometry, cells or beads pass a laser one at a time.

Test [8] deals with T1, recombinant human integrin αvβ8 …. As to the kind of experiment: cell-based or functional assay. The source holds these as a separate data set.
For test [9] the target is unchanged. Description: KinExA, solution-based affinity; antigen form not stated. The text has this:
Samples with serial dilutions are drawn over solid-phase beads coupled with one binding partner to capture the complimentary binding molecule, which is detected by flow of fluorophore-labeled antibody solution binding to a separate epitope on the same molecule being measured. Signals are used to calculate free concentration in solution after equilibrium is reached (i.e. to determine binding affinity KD), or under pre-equilibrium conditions over time (i.e. to determine binding kinetics). Free antigen remaining in solution at equilibrium for varying initial antibody concentrations in constant initial concentration of antigen as determined by the KinExA software, based on optimized least-squares fitting to a reversible binding equation.
A Kinetic Exclusion Assay (KinExA®, Sapidyne Instruments, Inc., Boise, ID) was used to measure the binding affinity of H4C8 (Seq ID NOs. 34, 35) produced with the CH1-CH3 domain from IgG4 (Seq ID NO: 59). […] Samples with serial dilutions are drawn over solid-phase beads coupled with one binding partner to capture the complimentary binding molecule, which is detected by flow of fluorophore-labeled antibody solution binding to a separate epitope on the same molecule being measured. […]
A general note: A kinetic exclusion assay measures how much of one partner remains free in solution.

Test [10] has as its target T6, human integrin αvβ8 on transfected …. Description: flow cytometry, surface binding to CHO αvβ8 cells.

T1 sequence (P06756 31-992 limits assumed, chain 1 of 2): as the sequence (P06756 31-992, chain 1 of 2) above
T1 sequence (P26012 43-681 limits assumed, chain 2 of 2): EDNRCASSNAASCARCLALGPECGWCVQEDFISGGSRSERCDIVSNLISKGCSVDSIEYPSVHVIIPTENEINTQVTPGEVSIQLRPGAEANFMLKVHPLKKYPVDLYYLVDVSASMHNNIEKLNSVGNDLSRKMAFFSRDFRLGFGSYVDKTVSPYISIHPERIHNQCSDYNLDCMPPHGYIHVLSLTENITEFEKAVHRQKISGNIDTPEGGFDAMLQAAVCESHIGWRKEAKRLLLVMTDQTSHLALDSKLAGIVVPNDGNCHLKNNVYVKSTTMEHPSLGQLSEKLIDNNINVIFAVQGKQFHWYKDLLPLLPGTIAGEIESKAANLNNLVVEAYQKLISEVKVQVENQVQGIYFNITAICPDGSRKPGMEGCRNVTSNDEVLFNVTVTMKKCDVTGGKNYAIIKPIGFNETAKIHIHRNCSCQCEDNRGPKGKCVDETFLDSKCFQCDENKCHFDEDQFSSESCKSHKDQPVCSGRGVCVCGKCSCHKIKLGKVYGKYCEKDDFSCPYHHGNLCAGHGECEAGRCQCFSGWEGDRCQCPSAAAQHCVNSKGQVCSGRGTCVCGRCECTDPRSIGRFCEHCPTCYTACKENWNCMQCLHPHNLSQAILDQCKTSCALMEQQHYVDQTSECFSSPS
T6 sequence (P06756 31-1048, chain 1 of 2): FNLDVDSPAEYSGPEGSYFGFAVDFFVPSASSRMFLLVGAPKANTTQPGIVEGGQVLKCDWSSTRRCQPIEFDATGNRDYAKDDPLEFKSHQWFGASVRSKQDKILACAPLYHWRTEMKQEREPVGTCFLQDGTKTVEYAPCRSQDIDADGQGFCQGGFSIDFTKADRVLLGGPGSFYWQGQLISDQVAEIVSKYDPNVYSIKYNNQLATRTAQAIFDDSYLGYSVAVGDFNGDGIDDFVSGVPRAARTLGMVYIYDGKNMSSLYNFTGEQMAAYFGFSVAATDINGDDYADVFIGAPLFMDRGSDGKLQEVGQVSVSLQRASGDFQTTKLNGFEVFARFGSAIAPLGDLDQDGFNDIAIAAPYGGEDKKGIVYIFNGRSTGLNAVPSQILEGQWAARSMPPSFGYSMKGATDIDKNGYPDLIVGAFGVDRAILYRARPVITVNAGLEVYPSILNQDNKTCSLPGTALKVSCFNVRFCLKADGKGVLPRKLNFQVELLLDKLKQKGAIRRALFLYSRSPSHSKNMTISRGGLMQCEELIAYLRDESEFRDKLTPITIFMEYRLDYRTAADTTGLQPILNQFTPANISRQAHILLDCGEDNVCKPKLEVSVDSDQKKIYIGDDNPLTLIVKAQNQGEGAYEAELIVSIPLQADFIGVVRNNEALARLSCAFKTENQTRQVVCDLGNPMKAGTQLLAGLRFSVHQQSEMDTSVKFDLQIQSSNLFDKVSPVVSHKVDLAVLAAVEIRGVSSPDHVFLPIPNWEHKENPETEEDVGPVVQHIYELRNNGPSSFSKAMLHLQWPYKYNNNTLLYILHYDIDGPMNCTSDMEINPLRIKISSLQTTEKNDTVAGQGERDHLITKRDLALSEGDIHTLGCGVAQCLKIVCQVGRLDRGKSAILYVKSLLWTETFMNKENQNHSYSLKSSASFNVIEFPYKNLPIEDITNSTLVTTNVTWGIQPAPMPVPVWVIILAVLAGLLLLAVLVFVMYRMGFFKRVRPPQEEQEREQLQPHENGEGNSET
T6 sequence (P26012 43-769, chain 2 of 2): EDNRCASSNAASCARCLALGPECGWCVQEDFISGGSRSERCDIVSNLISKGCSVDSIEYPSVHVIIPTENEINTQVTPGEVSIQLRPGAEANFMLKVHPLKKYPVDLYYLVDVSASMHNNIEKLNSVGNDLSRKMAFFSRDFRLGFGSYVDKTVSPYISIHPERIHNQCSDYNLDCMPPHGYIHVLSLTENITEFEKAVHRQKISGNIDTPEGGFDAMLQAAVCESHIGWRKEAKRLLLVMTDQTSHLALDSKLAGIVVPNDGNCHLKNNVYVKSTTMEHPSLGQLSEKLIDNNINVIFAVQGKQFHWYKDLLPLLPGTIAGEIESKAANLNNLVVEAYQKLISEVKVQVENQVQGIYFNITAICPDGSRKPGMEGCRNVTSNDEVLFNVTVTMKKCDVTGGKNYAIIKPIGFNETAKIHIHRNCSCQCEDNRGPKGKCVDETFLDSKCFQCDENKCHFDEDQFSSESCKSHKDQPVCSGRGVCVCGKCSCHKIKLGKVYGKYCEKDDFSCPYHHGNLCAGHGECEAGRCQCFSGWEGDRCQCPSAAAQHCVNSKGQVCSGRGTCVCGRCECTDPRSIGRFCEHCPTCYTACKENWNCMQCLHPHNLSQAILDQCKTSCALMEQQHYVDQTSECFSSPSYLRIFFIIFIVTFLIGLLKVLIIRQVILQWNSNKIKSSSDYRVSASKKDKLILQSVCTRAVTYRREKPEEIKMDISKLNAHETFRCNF
T2 sequence (P06756 31-992 limits assumed, chain 1 of 2): as the sequence (P06756 31-992, chain 1 of 2) above
T2 sequence (P18084 24-719 limits assumed, chain 2 of 2): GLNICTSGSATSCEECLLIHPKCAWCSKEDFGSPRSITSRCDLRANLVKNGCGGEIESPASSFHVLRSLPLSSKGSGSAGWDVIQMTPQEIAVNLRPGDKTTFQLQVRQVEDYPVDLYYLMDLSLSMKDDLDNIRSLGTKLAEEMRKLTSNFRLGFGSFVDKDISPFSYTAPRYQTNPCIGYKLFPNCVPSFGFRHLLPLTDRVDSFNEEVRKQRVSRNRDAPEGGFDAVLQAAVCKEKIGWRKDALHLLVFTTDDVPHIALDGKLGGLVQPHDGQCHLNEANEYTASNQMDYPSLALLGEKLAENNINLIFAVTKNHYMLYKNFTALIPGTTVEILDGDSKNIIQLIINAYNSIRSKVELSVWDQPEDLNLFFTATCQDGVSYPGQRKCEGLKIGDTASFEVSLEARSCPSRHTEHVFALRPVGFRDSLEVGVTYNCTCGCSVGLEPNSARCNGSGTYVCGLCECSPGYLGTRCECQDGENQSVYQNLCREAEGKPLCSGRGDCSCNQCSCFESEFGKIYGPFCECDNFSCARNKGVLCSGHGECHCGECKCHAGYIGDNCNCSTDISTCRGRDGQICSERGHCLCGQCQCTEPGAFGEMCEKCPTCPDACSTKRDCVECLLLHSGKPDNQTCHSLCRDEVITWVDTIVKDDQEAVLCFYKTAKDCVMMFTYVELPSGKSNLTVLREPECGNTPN

B1: H4C8 human IgG4 (antibody, V domains shown)
VH: QVQLVQSGAEVKKPGASVKVSCKVSGYTLTRQSMHWVRQAPGKGLEWMGRINTETGEPTYAQKFQGRVTMTQDTSTDTAYMELSSLRSEDTAVYFCAIFYYGRDTWGQGTTVTVSS
VL: EIVMTQSPATLSVSPGERVTLSCRSSQSLLHSRSRKNYLAWYQQKPGQAPRLLIYWASTRETGVPARFSGSGSGTEFTLTISSLQSEDFAVYYCKQSYNLLSFGQGTKVEIKR
notes: also called H4C8 IgG4
Regarding B1, the “ED50 of the inhibition of αvβ8-mediated TGF-β activation (immobilized αvβ8, TMLC GARP/L-TGF-β reporter cells)” value in [1] worked out at 0.01 µg/mL. The binding result in [2], in test [3], in test [4] and in test [5] was “no binding” in each case. Further, the Kd in test [6] was 3.6 nM; in [7], 2.6 nM; in test [9], 0.00707 nM. The “EC50 of inhibition of αvβ8-mediated TGF-β activation” value in test [8] amounted to 100 nM.

B2: Clone H1.1 as human IgG4 (antibody, V domains shown)
VH: B1 VH with R31K, Q32L, T55D, T59I, Q72E, F95Y, T105S, V112L
VL: B1 VL with V19A, S25A, S34T, E61A, V64I, K108V, V109L
As to B2, the “fold lower affinity than F12 mouse IgG2a” value in [10] amounted to 70 fold.
